Consider four compounds from paper PMC12421958, “Dual regulatory role of cyclic di-GMP via the DgcY/HhmR complex in salt response of Halomonas hydrothermalis Y2” (mBio, 2025).

A word on the Kd: it is a measure of binding affinity in units of concentration.

For assay [1], the target named is T1, DgcY202–406.
T1 construct: gene dgcY; intracellular fragment 202-406 (helical domain 203-221 + GGDEF 222-406) of 406-residue protein, TM domain removed; pET24a, E. coli BL21(DE3), His-tag, labelled by RED-tris-NTA for MST
The assay is described as follows: microscale thermophoresis (MST). Format: binding, Vreelandella hydrothermalis. The following applies: 25 °C, PBS-T; without HhmR; His-tag protein labelled with RED-tris-NTA. On the technique in general: MST reads how a fluorescent partner responds to local heating, with and without ligand.

Assay [2] deals with T2, DgcY222–406.
T2 construct: gene dgcY; GGDEF domain 222-406 only, TM and helical (HD) regions removed; pET24a, E. coli BL21(DE3), His-tag
The assay is described as follows: microscale thermophoresis (MST). Type of assay: binding, Vreelandella hydrothermalis. The note with it: 25 °C, PBS-T; without HhmR; His-tag protein labelled with RED-tris-NTA.

The target in assay [3] is DgcY_(202–406) (Halomonas hydrothermalis Y2). The assay is described as follows: MST; as a3, buffer containing 15 µM c-di-GMP.
Assay [4] shares this target.
For assay [5] the target is unchanged. The assay is described as follows: MST; His-tagged protein labelled with Red-tris-NTA, ligand in twofold serial dilutions, PBS-T buffer, 25°C; no c-di-GMP.
Assay [6] shares this target. The assay is described as follows: MST; as a3, buffer containing 2.5 µM c-di-GMP.
Assay [7] shares this target. The assay is described as follows: MST; as a3, buffer containing 0.5 µM c-di-GMP.
The target is the same in assay [8]. This is another data set of the same source.

Consider `Nc1nc2c(ncn2[C@@H]2O[C@@H]3COP(=O)(O)O[C@H]4[C@@H](O)[C@H](n5cnc6c(=O)[nH]c(N)nc65)O[C@@H]4COP(=O)(O)O[C@H]3[C@H]2O)c(=O)[nH]1` [c-di-GMP], for which the Kd in assay [1] amounted to 53.2 µM; in assay [2] it was 1170 µM.
In the case of HhmR (natural protein), the Kd is 0.0341 µM in assay [3], 8.96 µM in assay [5], 0.0905 µM in assay [6] and 0.105 µM in assay [7]. For the same compound, the c-di-GMP made by 10 µM DgcY202-406 with 15 µM HhmR, HPLC, 37°C, 2 to 8 h (with HhmR 9.47 µM at 3 h and 25.50 µM at 8 h; without HhmR 12.41 and 31.38 µM) in assay [4] worked out at 25.5 µM. In addition, the c-di-GMP made by DgcY202-406 with HhmR and 15 µM added c-di-GMP, HPLC, 37°C, 8 h (38 µM without added c-di-GMP) in assay [8] came out at 30 µM.
In the case of HhmR_(90–305) (domain or fragment), the Kd in assay [5] amounted to 0.053 µM.
As for “HhmR_(90–305)^Q240D (domain or fragment)”, the Kd in assay [5] stood at 0.571 µM.
